Source: patent US20230203185A1 (ECO ANIMAL HEALTH, published 2023)
Residue numbers refer to the chain shown, from its start.

B1: VHH 001 (1B02) (VHH)
VHH: EVQLVESGGGLVQAGGSLSLSCAASGGTLAMYAMSWFRQAPGKDRKFVAAINTSGRYSRYADSVKGRFTISRDNAKNTATLQMNSLEPEDTAVYYCAATDKGNWALAMSYDYWGQGTQVTVSS
notes: Llama single domain antibody; also called 144(#1); VHCDR3 144(#1); not shown: tags: c-myc tag in periplasmic extract (ELISA, FACS); FLAG and His tags in purified VHH (SPR, infection assays)
B2: VHH 015 (2G01) (VHH)
VHH: QVQLVESGGGLVQAGDTLRLSCTASGRTFSSYSMGWFRQAPGKEREFVAAITWNGYITNYADSVKGRFTISRDNTKNTVFLQMNSLKPEETAVYYCAATTFSTTSPISRTYNYWGPGTQVTVSS
notes: Llama single domain antibody; also called 150(#15); VHCDR3 150(#15); not shown: tags: c-myc tag in periplasmic extract (ELISA, FACS); FLAG and His tags in purified VHH (SPR, infection assays)
B3: VHH 018 (3E01) (VHH)
VHH: QVQLQESGGGLVQVGGSLRLSCVASGRAPSRYVMGWFRQAPGQEREFVAGIAWSGRAPYADSVKGRSTISRDNAKNTVYLQMNSLKPEDTGVYYCAGGEGAIRWTTLDAYDYWGQGTQVTVSS
notes: Llama single domain antibody; also called 49(#18); VHCDR3 49(#18); not shown: tags: c-myc tag in periplasmic extract (ELISA, FACS); FLAG and His tags in purified VHH (SPR, infection assays)
B4: VHH 020 (3H11) (VHH)
VHH: B3 VHH with A28T, S67F, T68V, N73S, P87S, R103L, L107P, D108G, D111N
notes: Llama single domain antibody; also called 48(#20); VHCDR3 48(#20); not shown: tags: c-myc tag in periplasmic extract (ELISA, FACS); FLAG and His tags in purified VHH (SPR, infection assays)
B5: VHH 019 (3E11) (VHH)
VHH: B3 VHH with G16S, A24T, A28T, G50A, A52S, S67F, R103K
notes: Llama single domain antibody; also called 47(#19); VHCDR3 47(#19); not shown: tags: c-myc tag in periplasmic extract (ELISA, FACS); FLAG and His tags in purified VHH (SPR, infection assays)
B6: VHH 011 (2B06) (VHH)
VHH: EVQLVESGGGLVQAGGSLRLSCAASGRTLSVYGTGWFRQAPGKEREFVAGISGTTGSTLYADSVKGRFTISRDNAKNTVYLQMNSLKSEDTALYYCAAGGRVYITTSSWAYWGQGTQVTVSS
notes: Llama single domain antibody; also called 57(#11); VHCDR3 57(#11); not shown: tags: c-myc tag in periplasmic extract (ELISA, FACS); FLAG and His tags in purified VHH (SPR, infection assays)
B7: VHH 017 (3D03) (VHH)
VHH: QLQLVESGGGLVQPGGSLRLSCAASGFTLDDYTIGWFRQAPGKEREGVSCINSITSNTYYADSVKGRFTISRDNAKNTVYLQMNSLTAEDTAIYYCAADSGLFSGSSCLKYRAMRFGSWGQGTQVTVSS
notes: Llama single domain antibody; also called 29(#17); VHCDR3 29(#17); not shown: tags: c-myc tag in periplasmic extract (ELISA, FACS); FLAG and His tags in purified VHH (SPR, infection assays)
B8: VHH 023 (4E10) (VHH)
VHH: QVQLVESGGGLVQAGGSLRLSCVASSRTSSTYAMGWFRQGPGKERDFVAIISFGGTFYADSVKGRFTISRDNAKNTVYLQMNSLKPEDTAVYYCAAGRTLSKRADSYASWGQGTQVTVSS
notes: Llama single domain antibody; also called 70(#23); VHCDR3 70(#23); not shown: tags: c-myc tag in periplasmic extract (ELISA, FACS); FLAG and His tags in purified VHH (SPR, infection assays)
B9: VHH 002 (1B04) (VHH)
VHH: QVQLVESGGGLVQAGGSLRLSCAASGLTFVTYSMGWFRQAPGKEREFVAAHRWSGSAYYAEHADSVEGRFTISRDYAKNMLYLQMNSLKHEDTAVYYCAAGVGSAAQYRYWGRGTQVTVSS
notes: Llama single domain antibody; also called 76(#2); VHCDR3 76(#2); not shown: tags: c-myc tag in periplasmic extract (ELISA, FACS); FLAG and His tags in purified VHH (SPR, infection assays)
B10: VHH 016 (2H11) (VHH)
VHH: EVQLVESGGGLVQAGGSLRLSCAASGRTFAPGSMGWFRQAPGKEREFVAAHRWSGSAYYADYADSVEGRFTISRDYAKNMVYLQMNSLKPGDTAVYYCAAGVGSAAQYTYWGRGTQVTVSS
notes: Llama single domain antibody; also called 77(#16); VHCDR3 77(#16); not shown: tags: c-myc tag in periplasmic extract (ELISA, FACS); FLAG and His tags in purified VHH (SPR, infection assays)
B11: VHH 008 (1H01) (VHH)
VHH: B9 VHH with L27R, V30G, A105E
notes: Llama single domain antibody; also called 78(#8); VHCDR3 78(#8); not shown: tags: c-myc tag in periplasmic extract (ELISA, FACS); FLAG and His tags in purified VHH (SPR, infection assays)
B12: VHH 012 (2C07) (VHH)
VHH: QLQLVESGGGLVQAGGSLRLSCVASGRTFSRYAMGWFRQAPGKEREFVAAIAWSTGSTYYANSVKGRFAISGDNAKNTVYLQMNSLKPEDTAVYYCAAETRYCSGFGCLDPRTYGSWGQGTQVTVSS
notes: Llama single domain antibody; also called 41(#12); VHCDR3 41(#12); not shown: tags: c-myc tag in periplasmic extract (ELISA, FACS); FLAG and His tags in purified VHH (SPR, infection assays)

Assays:
[1] = biological target: T1, pCD163-SRCR1-9-huFc (porcine, UniProt Q2VL90 47-1028, limits assumed); test: ELISA, periplasmic extract on coated antigen
T1 construct: also called pCD163:SRCR1-9-Fc; pCD163SRCR1-9-Fc; not shown: human Fc (huFc)
T1 sequence: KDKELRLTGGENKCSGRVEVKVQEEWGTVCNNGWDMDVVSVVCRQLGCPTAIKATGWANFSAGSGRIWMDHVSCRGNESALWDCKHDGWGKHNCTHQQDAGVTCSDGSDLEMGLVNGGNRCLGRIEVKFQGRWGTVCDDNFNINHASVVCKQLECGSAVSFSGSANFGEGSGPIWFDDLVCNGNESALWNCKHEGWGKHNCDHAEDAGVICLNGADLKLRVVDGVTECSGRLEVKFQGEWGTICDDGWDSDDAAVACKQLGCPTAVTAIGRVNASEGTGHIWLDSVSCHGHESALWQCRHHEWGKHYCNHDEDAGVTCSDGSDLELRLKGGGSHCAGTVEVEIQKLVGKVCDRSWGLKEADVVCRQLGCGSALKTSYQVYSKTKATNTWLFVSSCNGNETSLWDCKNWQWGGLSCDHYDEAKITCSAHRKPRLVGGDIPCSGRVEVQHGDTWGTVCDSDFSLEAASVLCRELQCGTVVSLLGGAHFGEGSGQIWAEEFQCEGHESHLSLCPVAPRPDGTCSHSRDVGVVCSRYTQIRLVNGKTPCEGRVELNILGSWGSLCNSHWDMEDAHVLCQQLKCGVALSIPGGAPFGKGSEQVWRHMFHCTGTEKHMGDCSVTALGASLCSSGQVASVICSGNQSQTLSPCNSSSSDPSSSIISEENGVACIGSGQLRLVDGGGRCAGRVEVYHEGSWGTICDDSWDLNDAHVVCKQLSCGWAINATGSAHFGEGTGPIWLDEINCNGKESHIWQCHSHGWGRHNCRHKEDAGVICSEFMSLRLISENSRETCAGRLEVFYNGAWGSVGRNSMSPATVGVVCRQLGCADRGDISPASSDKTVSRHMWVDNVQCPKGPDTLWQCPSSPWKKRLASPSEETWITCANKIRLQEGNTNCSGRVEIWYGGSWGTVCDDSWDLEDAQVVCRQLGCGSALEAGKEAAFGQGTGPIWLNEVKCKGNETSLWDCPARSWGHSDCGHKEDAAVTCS

[2] = biological target: T2, porcine CD163 with deletion of SRCR domain 5 on porcine alveolar macrophages (porcine, UniProt Q2VL90 47-1115); test: flow cytometry, PAM CD163-d5
T2 construct: also called PAM CD163-d5; pPAMΔ5 domain
T2 sequence: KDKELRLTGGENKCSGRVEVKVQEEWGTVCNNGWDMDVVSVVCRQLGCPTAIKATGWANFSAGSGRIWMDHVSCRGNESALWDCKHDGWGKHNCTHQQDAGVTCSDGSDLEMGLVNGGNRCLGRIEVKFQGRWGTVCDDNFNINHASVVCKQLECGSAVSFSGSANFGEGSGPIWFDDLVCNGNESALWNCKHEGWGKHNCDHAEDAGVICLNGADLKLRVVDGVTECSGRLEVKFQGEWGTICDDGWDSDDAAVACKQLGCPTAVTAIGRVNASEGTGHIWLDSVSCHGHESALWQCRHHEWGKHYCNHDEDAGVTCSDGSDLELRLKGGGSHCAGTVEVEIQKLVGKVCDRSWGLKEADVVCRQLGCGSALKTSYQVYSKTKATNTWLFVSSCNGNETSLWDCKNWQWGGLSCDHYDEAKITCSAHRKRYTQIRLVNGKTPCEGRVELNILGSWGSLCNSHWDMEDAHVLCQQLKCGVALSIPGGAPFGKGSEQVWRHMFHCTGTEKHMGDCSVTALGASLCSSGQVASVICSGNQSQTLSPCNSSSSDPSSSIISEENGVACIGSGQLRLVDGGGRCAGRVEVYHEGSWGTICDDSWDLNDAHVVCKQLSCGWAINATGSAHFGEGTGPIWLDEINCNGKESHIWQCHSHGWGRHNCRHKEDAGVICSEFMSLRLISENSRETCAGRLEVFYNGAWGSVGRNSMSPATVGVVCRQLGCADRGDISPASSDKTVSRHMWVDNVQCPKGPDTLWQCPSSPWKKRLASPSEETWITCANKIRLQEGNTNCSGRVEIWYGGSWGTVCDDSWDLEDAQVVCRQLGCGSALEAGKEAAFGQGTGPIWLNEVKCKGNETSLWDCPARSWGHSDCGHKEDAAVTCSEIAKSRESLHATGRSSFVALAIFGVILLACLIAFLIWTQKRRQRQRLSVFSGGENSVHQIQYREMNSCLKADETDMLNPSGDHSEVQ
Procedure: Periplasmic Extract (P.E) from the selected clones were incubated with anti-c-myc antibody (Roche; Cat. nr. 11667203001), specific to the c-myc tag present in the soluble VHH, for 30 minutes with agitation at room temperature (RT). The mix (P.E + anti-c-myc antibody) was added to the pPAM or pPAMΔ5 domain (cells with deletion of SRCR domain 5) and incubated for 60 min at 4° C. with gentle shaking.
Cells were washed 3x with 150 µl/well of FACS Buffer and incubated with 50 µl/well of the secondary antibody GAM-APC for 30 min at 4° C. and protected from the light, with shaking.

| Binder | O.D. 450 [1] [O.D. 450] | % Binding [2] [%] | MFI [2] [MFI] |
| --- | --- | --- | --- |
| B1 | 0.109 | 2.15 | 1430 |
| B2 | 1.18 | 1.6 | 1130 |
| B3 | 1.03 | 1.96 | 1400 |
| B4 | 2.93 | 1.98 | 1330 |
| B5 | 2.48 | 1.83 | 1530 |
| B6 | 0.106 | 1.91 | 1610 |
| B7 | 0.137 | 2.14 | 1450 |
| B8 | 0.577 | 1.53 | 1260 |
| B9 | 0.235 | 1.74 | 1260 |
| B10 | 0.263 | 1.66 | 1360 |
| B11 | 0.22 | 2.7 | 1460 |
| B12 | 0.535 | 2.13 | 1580 |
